We go through two substances from WO2009147196A1.

For experiment [1], the target named is EYFP-Rev (HIV-1) (UniProt P04618). Briefly: FRET Rev-multimerization assay, purified proteins mixed.
Experiment [2] shares this target. Description: FRET Rev-multimerization assay, negative control ECFP + EYFP-Rev.

EYFP-Rev (HIV-1), sequence (P04618 whole entry): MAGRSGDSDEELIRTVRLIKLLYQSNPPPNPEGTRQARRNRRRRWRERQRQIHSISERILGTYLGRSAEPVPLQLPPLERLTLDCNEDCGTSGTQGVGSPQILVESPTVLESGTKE

In turn, ECFP-Rev (from UniProt P04618 1-116) returned an FRET efficiency in experiment [1] of 20 to 35%.

In the case of free ECFP, the FRET efficiency in experiment [2] was 1.6%.
